Test results reported in US20260265358A1 (BYOMASS, published 2026).
Where a chain is given by its changes, count along the chain named. Values joined by “and” are separate entries in the source; they are usually repeats but may differ in a detail not shown here. Equal entries are not always repeated.

T1: Human Activin A Fc (human, UniProt P03970 309-424 (pig entry))
T1 construct: also called human Activin A-Fc fusion; human Activin A-Fc antigen; not shown: Fc part
T1 sequence: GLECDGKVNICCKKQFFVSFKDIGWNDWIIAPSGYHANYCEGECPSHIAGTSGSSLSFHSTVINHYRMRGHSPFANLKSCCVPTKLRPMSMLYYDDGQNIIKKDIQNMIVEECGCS

T2: Activin B (UniProt P09529 293-407)
T2 sequence (looked up): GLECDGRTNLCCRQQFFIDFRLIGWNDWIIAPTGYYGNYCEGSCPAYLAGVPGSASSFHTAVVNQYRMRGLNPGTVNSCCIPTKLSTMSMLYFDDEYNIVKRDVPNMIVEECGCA

T3: GDF15 Fc (UniProt Q99988 197-308, limits assumed)
T3 construct: not shown: Fc part
T3 sequence (looked up): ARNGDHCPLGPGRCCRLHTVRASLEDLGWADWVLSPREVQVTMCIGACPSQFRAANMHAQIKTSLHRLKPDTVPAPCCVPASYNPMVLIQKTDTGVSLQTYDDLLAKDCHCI

T4: BMP10 (UniProt O95393 317-424)
T4 sequence (looked up): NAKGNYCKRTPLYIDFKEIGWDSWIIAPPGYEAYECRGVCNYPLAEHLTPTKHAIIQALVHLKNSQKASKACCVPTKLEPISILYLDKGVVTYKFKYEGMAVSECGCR

T5: Human GDNF (human, UniProt P39905 78-211)
T5 sequence (looked up): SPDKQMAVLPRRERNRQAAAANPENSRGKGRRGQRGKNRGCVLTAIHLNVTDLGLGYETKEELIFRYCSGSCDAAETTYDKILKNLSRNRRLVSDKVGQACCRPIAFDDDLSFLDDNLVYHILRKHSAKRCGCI

T6: BMP9 (UniProt Q9UK05 320-429)
T6 sequence (looked up): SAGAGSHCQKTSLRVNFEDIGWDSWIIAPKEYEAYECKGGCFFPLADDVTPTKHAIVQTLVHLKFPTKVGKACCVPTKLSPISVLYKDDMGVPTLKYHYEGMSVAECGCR

T7: Human GDF10 (human, UniProt P55107 369-478)
T7 sequence (looked up): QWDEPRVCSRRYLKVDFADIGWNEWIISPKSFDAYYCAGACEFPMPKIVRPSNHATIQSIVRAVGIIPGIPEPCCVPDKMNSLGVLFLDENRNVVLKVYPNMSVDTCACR

T8: Activin A (ligand of the Activin 2B Receptor/SMAD reporter assay) (UniProt P08476 311-426)
T8 sequence (looked up): T1 sequence

B1: anti-Activin A antibody Clone Q (IgG) (antibody, V domains shown)
VH: QVQLVQSGAEVKKPGSSVKVSCKASGGSFSPYTWSWVRQAPGQGLEWMGGIIPISGTANTAQKFQGRVTITADESTSTAYMELSSLRSEDTAVYYCARGGPLSGWRASYYYWGQGTLVTVSS
VL: not shown
notes: IgG format; also called Antibody Q
B2: anti-Activin A antibody Clone A (IgG) (antibody, V domains shown)
VH: QVQLVQSGAEVKKPGASVKVSCKASGYTFTGYYMHWVRQAPGQGLEWMGSINPSSGGTNYAQKFQGRVTMTTDTSTSTAYMELRSLRSDDTAVYYCARARDIAAAGLGAFDYWGQGTLVTVSS
VL: EIVLTQSPGTLSLSPGERATLSCRASQSVRSSYLAWYQQKPGQAPRLLIYGASSRATGIPDRFSGSGSGTDFTLTISRLEPEDFAVYYCQQYVSYPRTFGGGTKVEIKR
notes: IgG format; also called Antibody A
B3: anti-Activin A antibody Clone I (IgG) (antibody, V domains shown)
VH: QVQLVQSGAEVKKPGSSVKVSCKASGGTFSNYAISWVRQAPGQGLEWMGYIIPFFGTANYAQKFQGRVTITADESTSTAYMELSSLRSEDTAVYYCARGGSGYSTSWGSSLYWGQGTLVTVSS
VL: B2 VL with R30S, S54Y, Q90L, Y92S, V93G, S94V, Y95F, R97Y
notes: IgG format; also called Antibody I
B4: anti-Activin A antibody Clone H (IgG) (antibody, V domains shown)
VH: B2 VH with Y33H, M34I, S50H, N52S, P53A, S54Y, G57T, F64L
VL: B2 VL with V93S, S94N
notes: IgG format; also called Antibody H
B5: anti-Activin A antibody Clone E (IgG) (antibody, V domains shown)
VH: B2 VH with T30H, Y33N, S54Y, G57Y, N59I, T72R, T76I, R84S, S85R
VL: B2 VL
notes: IgG format; also called Antibody E
B6: anti-Activin A antibody Clone G (IgG) (antibody, V domains shown)
VH: B2 VH with G31S, M34I, S50A, N52Y, P53A, S54Y, G57D, F64L
VL: B2 VL with V93S, S94N
notes: IgG format; also called Antibody G
B7: anti-Activin A antibody Clone L (IgG) (antibody, V domains shown)
VH: QVQLQESGPGLVKPSETLSLTCAVSGYSISSGYYWGWIRQPPGKGLEWIGSIYHSGSTYYNPSLKSRVTISVDTSKNQFSLKLSSVTAADTAVYYCAREAGSGYWYLSVYGMDVWGQGTTVTVSS
VL: EIVLTQSPATLSVSPGERATLSCRASQSVSSNLAWYQQKPGQAPRLLIYGASTRATGIPARFSGSGSGTEFTLTISSLQSEDFAVYYCQQSDDWPWTFGGGTKVEIKR
notes: IgG format; also called Antibody L
B8: anti-Activin A antibody Clone K (IgG) (antibody, V domains shown)
VH: QVQLVQSGAEVKKPGSSVKVSCKASGGTSSSYAISWVRQAPGQGLEWMGYIIPAFGTANYAQKFQGRVTITADESTSTAYMELSSLRSEDTAVYYCARPVRTYPLGKYFYHWGQGTLVTVSS
VL: EIVLTQSPATLSLSPGERATLSCRASQSVSSYLAWYQQKPGQAPRLLIYDASNRATGIPARFSGSGSGTDFTLTISSLEPEDFAVYYCQQDSIFPPYTFGGGTKVEIKR
notes: IgG format; also called Antibody K

Target: T1, Human Activin A Fc
Experiment: KD with 0.1% BSA, method not stated

| Kd | Binder |
| --- | --- |
| 128 pM | B1 |

Target: T2, Activin B
Experiment: cell-based or functional assay

| Activin B-ActRIIB SMAD IC50 pM | Binder |
| --- | --- |
| > 100000 pM | B2 |
| 52400 pM | B3 |
| > 100000 pM | B4 |
| 83600 pM | B5 |
| > 100000 pM | B6 |
| > 100000 pM | B7 |
| 30700 pM | B8 |

Target: T3, GDF15 Fc
Experiment: Octet BLI, IgG, avid

| binding result | Binder |
| --- | --- |
| no binding (tested: 100 nM antigen) | B1 |
| no binding (tested: 100 nM antigen) | B2 |
| no binding (tested: 100 nM antigen) | B3 |
| no binding (tested: 100 nM antigen) | B4 |
| no binding (tested: 100 nM antigen) | B5 |
| no binding (tested: 100 nM antigen) | B6 |
| no binding (tested: 100 nM antigen) | B7 |
| no binding (tested: 100 nM antigen) | B8 |

Target: T4, BMP10
Experiment: Octet BLI, IgG, avid

| binding result | Binder |
| --- | --- |
| no binding (tested: 100 nM antigen) | B1 |
| no binding (tested: 100 nM antigen) | B2 |
| no binding (tested: 100 nM antigen) | B3 |
| no binding (tested: 100 nM antigen) | B4 |
| no binding (tested: 100 nM antigen) | B5 |
| no binding (tested: 100 nM antigen) | B6 |
| no binding (tested: 100 nM antigen) | B7 |
| no binding (tested: 100 nM antigen) | B8 |

Target: T2, Activin B
Experiment: Octet BLI, IgG, avid

| binding result | Kd | Binder |
| --- | --- | --- |
| no binding (tested: 100 nM antigen) | – | B1 |
| no binding (tested: 100 nM antigen) | – | B2 |
| no binding (tested: 100 nM antigen) | – | B3 |
| no binding (tested: 100 nM antigen) | – | B6 |
| – | 241000 pM | B7 |
| no binding (tested: 100 nM antigen) | – | B8 |

Target: Human GDF11 (human, UniProt O95390 299-407)
Experiment: Octet BLI, IgG, avid

Chain of Human GDF11 (O95390 299-407 limits assumed): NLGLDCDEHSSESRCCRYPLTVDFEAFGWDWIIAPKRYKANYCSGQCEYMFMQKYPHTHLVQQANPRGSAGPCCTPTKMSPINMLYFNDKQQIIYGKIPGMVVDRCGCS

| binding result | Kd | Binder |
| --- | --- | --- |
| no binding (tested: 100 nM antigen) | – | B1 |
| no binding (tested: 100 nM antigen) | – | B2 |
| no binding (tested: 100 nM antigen) | – | B3 |
| no binding (tested: 100 nM antigen) | – | B4 |
| – | 27300 pM | B5 |
| no binding (tested: 100 nM antigen) | – | B6 |
| no binding (tested: 100 nM antigen) | – | B7 |
| no binding (tested: 100 nM antigen) | – | B8 |

Target: T5, Human GDNF
Experiment: Octet BLI, IgG, avid

| binding result | Binder |
| --- | --- |
| no binding (tested: 100 nM antigen) | B1 |
| no binding (tested: 100 nM antigen) | B2 |
| no binding (tested: 100 nM antigen) | B3 |
| no binding (tested: 100 nM antigen) | B4 |
| no binding (tested: 100 nM antigen) | B5 |
| no binding (tested: 100 nM antigen) | B6 |
| no binding (tested: 100 nM antigen) | B7 |
| no binding (tested: 100 nM antigen) | B8 |

Target: Human GDF8 (human, UniProt O14793 267-375)
Experiment: Octet BLI, IgG, avid

| binding result | Binder |
| --- | --- |
| no binding (tested: 100 nM antigen) | B1 |
| no binding (tested: 100 nM antigen) | B2 |
| no binding (tested: 100 nM antigen) | B3 |
| no binding (tested: 100 nM antigen) | B4 |
| no binding (tested: 100 nM antigen) | B5 |
| no binding (tested: 100 nM antigen) | B6 |
| no binding (tested: 100 nM antigen) | B7 |
| no binding (tested: 100 nM antigen) | B8 |

Target: T6, BMP9
Experiment: Octet BLI, IgG, avid

| binding result | Binder |
| --- | --- |
| no binding (tested: 100 nM antigen) | B1 |
| no binding (tested: 100 nM antigen) | B2 |
| no binding (tested: 100 nM antigen) | B3 |
| no binding (tested: 100 nM antigen) | B4 |
| no binding (tested: 100 nM antigen) | B5 |
| no binding (tested: 100 nM antigen) | B6 |
| no binding (tested: 100 nM antigen) | B7 |
| no binding (tested: 100 nM antigen) | B8 |

Target: T7, Human GDF10
Experiment: Octet BLI, IgG, avid

| binding result | Binder |
| --- | --- |
| no binding (tested: 100 nM antigen) | B1 |
| no binding (tested: 100 nM antigen) | B2 |
| no binding (tested: 100 nM antigen) | B3 |
| no binding (tested: 100 nM antigen) | B4 |
| no binding (tested: 100 nM antigen) | B5 |
| no binding (tested: 100 nM antigen) | B6 |
| no binding (tested: 100 nM antigen) | B7 |
| no binding (tested: 100 nM antigen) | B8 |

Target: T1, Human Activin A Fc
Experiment: KD with 5% HSA, method not stated

| Kd | Binder |
| --- | --- |
| 189 pM | B1 |

Target: T1, Human Activin A Fc
Experiment: Octet BLI, IgG, avid
Procedure: ForteBio affinity measurements were performed on an Octet HTX generally as previously described (see, e.g., Estep et al, Mabs 5(2), 270-278 (2013)). Briefly, ForteBio affinity measurements were performed by loading IgGs on-line onto AHC sensors. Sensors were equilibrated off-line in assay buffer for 30 min and then monitored on-line for 60 seconds for baseline establishment. Sensors with loaded IgGs were exposed to 100 nM antigen for 3 minutes, and afterwards were transferred to assay buffer for 3 min for off-rate measurement. All kinetics were analyzed using the 1:1 binding model.
Binding affinity and epitope binning assays were performed with a ForteBio instrument as described herein.

| Kd | Binder |
| --- | --- |
| 585 pM | B1 |
| 810 pM | B2 |
| 536 pM | B3 |
| 666 pM | B4 |
| 551 pM | B5 |
| 680 pM | B6 |
| 1570 pM | B7 |
| 430 pM | B8 |

Target: T8, Activin A (ligand of the Activin 2B …)
Experiment: cell-based or functional assay

| Activin A-ActRIIB SMAD IC50 pM | Binder |
| --- | --- |
| 324 pM and 282 pM and 361 pM | B2 |
| 1.09 pM | B3 |
| 36.9 pM | B4 |
| 16.5 pM | B5 |
| 15.8 pM | B6 |
| 200 pM | B7 |

Target: T1, Human Activin A Fc
Experiment: KD with 0.1% HSA, method not stated

| Kd | Binder |
| --- | --- |
| 156 pM | B1 |
